How the values were obtained:
Assay in all cases: tandem affinity purification with Western blot
[1] = molecular target: TAP-tagged Spt7 (S. cerevisiae) (UniProt P35177)
[2] = molecular target: TAP-tagged Esa1 (S. cerevisiae) (UniProt Q08649)
[3] = molecular target: TAP-tagged Ada2 (S. cerevisiae) (UniProt Q02336)
UniProt Q02336, sequence (Q02336 whole entry): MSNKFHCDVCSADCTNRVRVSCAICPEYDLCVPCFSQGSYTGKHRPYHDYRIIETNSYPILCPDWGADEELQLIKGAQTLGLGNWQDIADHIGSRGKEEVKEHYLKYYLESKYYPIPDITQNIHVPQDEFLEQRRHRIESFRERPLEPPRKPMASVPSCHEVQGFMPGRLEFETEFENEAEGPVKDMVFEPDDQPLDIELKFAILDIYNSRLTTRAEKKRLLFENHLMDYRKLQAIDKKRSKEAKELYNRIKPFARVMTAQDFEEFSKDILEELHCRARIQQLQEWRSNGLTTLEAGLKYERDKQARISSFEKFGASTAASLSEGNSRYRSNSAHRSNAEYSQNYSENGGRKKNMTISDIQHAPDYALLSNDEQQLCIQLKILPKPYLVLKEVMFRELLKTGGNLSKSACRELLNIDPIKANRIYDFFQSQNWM

UniProt P35177, sequence (P35177 whole entry): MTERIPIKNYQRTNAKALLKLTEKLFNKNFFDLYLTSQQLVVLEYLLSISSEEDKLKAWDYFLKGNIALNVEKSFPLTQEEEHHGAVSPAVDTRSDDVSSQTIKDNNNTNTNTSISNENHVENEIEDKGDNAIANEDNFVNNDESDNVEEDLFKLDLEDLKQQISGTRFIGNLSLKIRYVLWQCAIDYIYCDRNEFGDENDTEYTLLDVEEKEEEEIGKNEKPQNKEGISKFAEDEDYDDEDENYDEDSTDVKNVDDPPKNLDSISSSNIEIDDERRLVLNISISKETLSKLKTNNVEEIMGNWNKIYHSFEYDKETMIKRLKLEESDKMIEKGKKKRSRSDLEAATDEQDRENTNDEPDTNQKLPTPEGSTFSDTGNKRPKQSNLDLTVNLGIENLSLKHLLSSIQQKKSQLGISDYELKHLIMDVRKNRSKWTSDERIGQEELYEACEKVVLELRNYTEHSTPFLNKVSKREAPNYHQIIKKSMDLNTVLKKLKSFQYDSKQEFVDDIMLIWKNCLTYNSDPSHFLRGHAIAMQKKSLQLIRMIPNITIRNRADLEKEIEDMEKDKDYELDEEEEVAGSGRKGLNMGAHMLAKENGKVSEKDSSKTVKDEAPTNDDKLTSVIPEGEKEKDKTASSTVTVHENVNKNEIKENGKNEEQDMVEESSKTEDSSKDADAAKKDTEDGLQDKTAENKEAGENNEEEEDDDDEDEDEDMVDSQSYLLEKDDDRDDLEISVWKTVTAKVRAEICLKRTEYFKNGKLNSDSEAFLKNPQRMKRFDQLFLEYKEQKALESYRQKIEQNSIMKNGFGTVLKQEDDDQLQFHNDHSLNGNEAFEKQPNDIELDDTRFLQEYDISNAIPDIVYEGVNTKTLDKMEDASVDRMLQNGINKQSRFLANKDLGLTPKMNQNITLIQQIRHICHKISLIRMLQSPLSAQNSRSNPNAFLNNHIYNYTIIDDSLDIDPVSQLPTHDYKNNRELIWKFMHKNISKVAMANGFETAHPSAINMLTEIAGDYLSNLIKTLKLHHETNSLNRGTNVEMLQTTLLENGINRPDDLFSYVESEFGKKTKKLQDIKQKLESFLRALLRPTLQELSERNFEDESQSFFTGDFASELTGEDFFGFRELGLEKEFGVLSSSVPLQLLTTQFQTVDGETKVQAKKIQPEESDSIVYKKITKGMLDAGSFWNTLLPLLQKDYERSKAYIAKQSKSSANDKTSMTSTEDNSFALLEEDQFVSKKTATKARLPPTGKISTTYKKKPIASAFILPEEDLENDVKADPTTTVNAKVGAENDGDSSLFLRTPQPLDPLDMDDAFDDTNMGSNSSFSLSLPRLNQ
UniProt Q08649, sequence (Q08649 whole entry): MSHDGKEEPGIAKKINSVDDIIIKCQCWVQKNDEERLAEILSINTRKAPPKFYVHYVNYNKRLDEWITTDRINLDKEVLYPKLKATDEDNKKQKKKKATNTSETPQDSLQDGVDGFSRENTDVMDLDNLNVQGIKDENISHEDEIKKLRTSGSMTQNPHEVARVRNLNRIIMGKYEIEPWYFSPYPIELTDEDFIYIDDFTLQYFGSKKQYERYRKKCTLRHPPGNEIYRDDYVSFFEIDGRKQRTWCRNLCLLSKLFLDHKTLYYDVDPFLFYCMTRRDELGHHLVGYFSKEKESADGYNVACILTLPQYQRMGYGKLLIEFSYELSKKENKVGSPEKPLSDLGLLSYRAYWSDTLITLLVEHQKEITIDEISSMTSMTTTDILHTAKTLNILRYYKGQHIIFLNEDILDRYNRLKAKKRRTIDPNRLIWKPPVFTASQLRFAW

Substance: myc9-Tra1-G3745, P38811 1-3744
- amount co-purifying, percent of that found for wild-type Tra1 [1]: < 5%
- amount co-purifying, percent of that found for wild-type Tra1 [2]: < 5%
- interaction against wild-type Tra1, percent (reduced to or by is not clear) [3]: 70%
